Laboratory results taken from paper PMC6166713.
pKd: −log10 of the molar value. Like-named read-outs stand apart in the source and are kept apart here.

Assays:
Assay in all cases: scintillation proximity assay (SPA); 5 nM GST-WASP variant immobilised on protein A SPA fluoromicrospheres via an anti-GST antibody; varying concentrations of [3H]GTP·Cdc42; direct binding isotherm; apparent Kd; low-salt buffer
GST-WASP(201–321) K235A = GST-WASP(201–321) K235A (UniProt P42768)
GST-WASP(201–321) G251A = GST-WASP(201–321) G251A (UniProt P42768)
GST-WASP(201–321) P241A = GST-WASP(201–321) P241A (UniProt P42768)
GST-WASP(201–321) F271A = GST-WASP(201–321) F271A (UniProt P42768)
GST-WASP(201–321) L267A = GST-WASP(201–321) L267A (UniProt P42768)
GST-WASP(201–321) H249A = GST-WASP(201–321) H249A (UniProt P42768)
GST-WASP(201–321) L270A = GST-WASP(201–321) L270A (UniProt P42768)
GST-WASP(201–321) V250A = GST-WASP(201–321) V250A (UniProt P42768)
GST-WASP(201–321) I233A = GST-WASP(201–321) I233A (UniProt P42768)
GST-WASP(201–254) = GST-WASP(201–254) (UniProt P42768)
GST-WASP(201–321) S242A = GST-WASP(201–321) S242A (UniProt P42768)
[1] = target: GST-WASP(201–321) wild type (UniProt P42768)
GST-WASP(201–321) H246A = GST-WASP(201–321) H246A (UniProt P42768)
GST-WASP(201–321) F244A = GST-WASP(201–321) F244A (UniProt P42768)
GST-WASP(201–321) W252A = GST-WASP(201–321) W252A (UniProt P42768)
[2] = target: GST-WASP(201–321) K225A/R227A (UniProt P42768)
[3] = target: GST-WASP(201–321) K225A/K226A/R227A/K230A/K231A/K232A (UniProt P42768)
[4] = target: GST-WASP(201–321) K230A/K232A (UniProt P42768)
GST-WASP(201–321) K225A = GST-WASP(201–321) K225A (UniProt P42768)
[5] = target: GST-WASP(201–321) wild type (UniProt P42768); remark: listed apart in the source

pKd (GST-WASP(201–321) K235A): 8.10
pKd (GST-WASP(201–321) G251A): 8.28
pKd (GST-WASP(201–321) P241A): 7.42
pKd (GST-WASP(201–321) F271A): 8.30
pKd (GST-WASP(201–321) L267A): 8.49
pKd (GST-WASP(201–321) H249A): 7.37
pKd (GST-WASP(201–321) L270A): 8.77
pKd (GST-WASP(201–321) V250A): 8.00
pKd (GST-WASP(201–321) I233A): 7.58
pKd (GST-WASP(201–254)): 7.50
pKd (GST-WASP(201–321) S242A): 8.19
pKd [1]: 9.30
pKd (GST-WASP(201–321) H246A): 7.37
pKd (GST-WASP(201–321) F244A): 7.19
pKd (GST-WASP(201–321) W252A): 8.02
pKd [2]: 5.12
pKd [3]: 4.01
pKd [4]: 4.74
pKd (GST-WASP(201–321) K225A): 5.55
pKd [5]: 6.30
Substance: Cdc42 Δ7 Q61L (from UniProt P60953 1-191) (natural protein)
